Test results taken from patent US20190064166.

System: PAPPA2 (pappalysin-2), full-length urinary protein from vAKI patients

## Cathepsin D
  digestion of urinary PAPPA2, loss of PAPPA2 immunoreactivity on immunoblot: the addition of cathepsin D to vAKI samples digested PAPPA2
